Experimental data published in the nanobody polyreactivity screen of Harvey et al. (2022).

assay: yeast display, Sf9 membrane polyspecificity reagent, FACS + sequencing; frameworks hold sequencing errors
Summary of the method: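 Genes from sorted yeast were amplified by colony PCR, read by MiSeq 2 × 250 sequencing and filtered on CDR length. These cells carried a synthetic nanobody library in Saccharomyces cerevisiae BJ5465 and were sorted by FACS into low and high (top ~1%) gates on anti-HA and streptavidin fluorescence. Polyreactivity is labelled according to the gate of origin.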

Q: With “QLQLVESGGGLVQAGGSLRLSCAASGSIFCQNNMGWYRQAPGKERELVDTITSAGSTYYADSVKGRFTISRANAQNTVYLQMNSLKPEYTAVFYCAAELYRYGFYVPIYPYSYDYWGQGTQVTVSS” as the sequence, how does the “polyreactivity (PSR sort gate)” value read?
A: Its value is “low polyreactivity”.

Q: Which “polyreactivity (PSR sort gate)” value does the source give for “QLQLVESGGGLVQAGGSLRLSCAASGSIFRFNAMGWYRQAPGKERELVAAISGDSGSTYYADSVKGRFTISRDTAKNTVYFQMNCLKPEDTAVYYCNARHGKIIFYLERYDYWGHGTQVTVSS” here?
A: The value was “low polyreactivity”.

Q: For “QLQLVESGGGLVQAGGSLRLSCAASGSIFSRNAMGWYRQAPAKERELVAGISTGGSTNYADSVKGRFTISRDNAKNTVYLLMNSLKTEVTAVYYCAAPLAYEGDYWGQGTQVTVSS”, which “polyreactivity (PSR sort gate)” value is on record?
A: The value was “low polyreactivity”.

Q: Which “polyreactivity (PSR sort gate)” value does the source give for “QLQLVESGGGLVQAGGSLRLSCAASGSIFYKYAMGWYRQAPGKERELVAAITWSGGRTYYADSVKGRFTISRDNAKNTVYLQMNSLIPEDTAVYYCAAVLRRYPGWVSDYNYWGQGTQVTVSS” here?
A: Its value is “high polyreactivity”.

Q: With “QLQLVESGGGLVQAGGSLRLSCAASGSIIAAYAMGWYRQAPVKERELVAVITRSGGSTYYADSVKGRFTISRDNAKNTVYLQMNSLKPEDTAVYYCAAVGTRKMYYWGQGTQVTVSS” as the sequence, how does the “polyreactivity (PSR sort gate)” value read?
A: Its value is “high polyreactivity”.

Q: Which “polyreactivity (PSR sort gate)” value does the source give for “QLQLVESGGGLVQAGGSLRLSCAASGSTFAPYAMGWYRQAPGKERELVADISGGSTNYADSVKGRFTISRDNAKNTVYLQMNSLKPEDTAVYYCATEDHVETVRRLYGYWGLGTQVTVSS” here?
A: The value was “low polyreactivity”.

Q: With “QLQLVESGGGLVQAGGSLRLSCAASGSTFGFYAMGWYRQAPGKARELVAAISSSGSTYYADSVKGRFTISRDNAKITVYLQMNSLKPEDTAVYYCAAQPGYYDYDYWGQGTQVTVSS” as the sequence, how does the “polyreactivity (PSR sort gate)” value read?
A: The value was “low polyreactivity”.

Q: For “QLQLVESGGGLVQAGGSLRLSCAASGSTFPTNAMGWYRQAPGKEMELVATITTGGSTYYADSVKGRFTISRDNAKNTVYLQMNCLKPEDTAVYYCNAEYVYLIFSVYLYDYDYWGQGTQVTVSS”, which “polyreactivity (PSR sort gate)” value is on record?
A: The value was “low polyreactivity”.

Q: For “QLQLVESGGGLVQAGGSLRLSCAASGSTFRFNTMGWYRQAPGKERGLVACIAAGTTTNYADSVKGRFTISRDNAKNTVYLQMNSLKPEDAAVYYCAALNAFNTGHWYWGQGTQVTVSS”, which “polyreactivity (PSR sort gate)” value is on record?
A: Its value is “low polyreactivity”.

Q: Which “polyreactivity (PSR sort gate)” value does the source give for “QLQLVESGGGLVQAGGSLRLSCAASGSTFTFNAMGWYRQAPGKERELVATISRGGSTSYADSVKGRFTISRDNAKNTVYLQMNSLNPEDTAVYYCAAVLYPSIYGFAGGKTDYDYWGQGTQVTVSS” here?
A: The value was “low polyreactivity”.

Q: Which “polyreactivity (PSR sort gate)” value does the source give for “QLQLVESGGGLVQAGGSLRLSCAASGSTFWSNTMGWYRQAPGKERELVATITDSGGITYYADSVKGRFTISRDNAKNTVYLQMNSLKPEDTAVYYCNVRKTWYGYSVTGRYDYWGQGTQVTVSS” here?
A: The value was “low polyreactivity”.

Q: Which “polyreactivity (PSR sort gate)” value does the source give for “QLQLVESGGGLVQAGGSLRLSCAASGSTFYAYAMGWNRPAPGKERELVAAISRGGNTYYADSVQGRFTISRDNAKNTVYLQMNSRKPEDTAVYYCAARYARGRSPLQYGYWGQGTQVTVSS” here?
A: The value was “high polyreactivity”.

Q: For “QLQLVESGGGLVQAGGSLRLSCAASGVIFRAYAMGSSRQAPGQERELVAAISGRGGSTYYADSVKGRFTISRDNAKNTVYLQMNSLKPEDTAVYYCNVPLIHPGAPYEYWGQGTQVTVSS”, which “polyreactivity (PSR sort gate)” value is on record?
A: Its value is “high polyreactivity”.

Q: With “QLQLVESGGGLVQAGGSLRLSCAASRRIFSPNAMGWYRQAPGKESELVAAIRWNGGRTYYADSVKGRFTISRDTAKNTVYLQMNSLKPEDTAVYYCAATYFGPDYVRYDDWGQGTQVTVSS” as the sequence, how does the “polyreactivity (PSR sort gate)” value read?
A: The value was “high polyreactivity”.

Q: For “QLQLVESGGGLVQAGGSLRLSCAATGRIFRFYALGWYRQATGKERELVADISRRGGSTYFADSVKGRFTISRDNAKNTVYVQMTSLKPEDTAVYYCNARWYRTGSTYHEDYWGQGTQVTVSS”, which “polyreactivity (PSR sort gate)” value is on record?
A: The value was “high polyreactivity”.

Q: For “QLQLVESGGGLVQAGGSLRLSCSASGGTFYRNAMGWSRQAPGKESELVPSISRTGGSTYYADSVKGRFTISRDNAKNTVYLQMNILKPEDTAVYYCANKQPRYSYFDNDYWGQGTQVTVSS”, which “polyreactivity (PSR sort gate)” value is on record?
A: The value was “high polyreactivity”.

Q: For “QLQLVESGGGLVQAGGSLSLSCAASGRIFYVYAMGWYRQAPGKEREFVAAITRRSGSTYYADSVKGRFTISRDNAKNTVYFQMNSLKPEDTSVYYCNARLKYAIPQVPPYDYWGQGTQVTVSS”, which “polyreactivity (PSR sort gate)” value is on record?
A: The value was “high polyreactivity”.

Q: Which “polyreactivity (PSR sort gate)” value does the source give for “QLQLVESGGGLVQAGGSRRLSCAASGSTFGRYAMGWYRQAPGKERELVAAISRRGTSTYYADSVKGRFTISRDNAKNTVYIQMNSLKPEDTAVYYSNAVTSSFYNRDSDYWGQGTQVTVSS” here?
A: The value was “high polyreactivity”.

Q: With “QLQLVESGGGLVQARGSLRLSCASSGSPFEGYAMGRSRQAPGKERELVARITIGGSTNYADSVKGRFTISRDNAKNSVYLQMNSLKPDDTAVYYCAADYRWGYYFTFYYWGQGTQVTVSY” as the sequence, how does the “polyreactivity (PSR sort gate)” value read?
A: The value was “high polyreactivity”.

Q: Which “polyreactivity (PSR sort gate)” value does the source give for “QLQLVESGGWLVQAGGSLRLSCAASGGTIVTYAMGWYRQAPGKERELVAAISRRGGSTFSADSVKGRFTISRDNAKNTVYLQMNSLKPADTAVYYCAALSNHGYYIRMDYWGHGTQVTVSS” here?
A: The value was “high polyreactivity”.

Q: For “QLQLVESGRGLVQAGGSLRLSCAASGITFPGYAMGWYRQAPGKERELVAAIDWSGDGTYYADSVKGRFTISRENAKNTVYFQMNSLKPEDTAVFYCAKDNYPNHSTVLAVIYDNWGQGTQVTVSS”, which “polyreactivity (PSR sort gate)” value is on record?
A: The value was “low polyreactivity”.

Q: Which “polyreactivity (PSR sort gate)” value does the source give for “QLQLVESGRGLVQAGGSLRLSCAASGRTFVYYPMGSYRQAPGKERELVASISSVGTTKYADSVKGRFTISRDNAKNTVYLQMNCLKPEDTAVYYCAAVPLSRNIFDSWGQGTQVSVSS” here?
A: The value was “low polyreactivity”.

Q: Which “polyreactivity (PSR sort gate)” value does the source give for “QLQLVESGVGLVQAGGSLRLSCAPSGFTSTYYAMAWYSQAPGKERELVAAITSSGTRTYYADSVKGRFTISRENAKNTVYLQMNSLKPEDTAVYYCNAALRKGMYYWGQGTQVTVSS” here?
A: Its value is “high polyreactivity”.

Q: Which “polyreactivity (PSR sort gate)” value does the source give for “QLRLVESGGGLVQAGGSLRLSCAAYGFIFRNNAMGWYRQAPGKERELVAVISFSGGSTYYADSVKGRFTISRDNAKHTVYLQMNSLKPEDTAVYYCAADDYQVQYDYWGQGTQVTVSS” here?
A: Its value is “low polyreactivity”.

Q: For “QQQLVESGGGVVQAGGSLRLSCAASGSTFSGYAMGWYIPAPGKERELVAAIRKSGGSKYYADSVKGRFTISRDNAKNTVYLQMNSLKPEDTAVYYCNARRDLQYSQYKRYGYWGQGTQVNVSS”, which “polyreactivity (PSR sort gate)” value is on record?
A: Its value is “low polyreactivity”.

Q: Which “polyreactivity (PSR sort gate)” value does the source give for “QVEHVDSGRGLVQAGGSLRLSCAASGSIIRSYAMGWYRQAPGKERELVAAISWRGGRTYYADSLKGRFTISRDNAKNTVYLQMNSLKPEDTAVYFCAARKRAQQGTRDHDYWGQGTQLTVSS” here?
A: Its value is “high polyreactivity”.

Q: With “QVELVESAAGLVQAGASLRLSCAASGTTIKSYVMGWYRQPPGKETELVAAISSGDSTYYADSVKGRFTISRDNAKNTVYLQMNSLNPEDTAVYYCAADPCYSVEPWEDDYWGQGSQVTVSS” as the sequence, how does the “polyreactivity (PSR sort gate)” value read?
A: The value was “low polyreactivity”.

Q: Which “polyreactivity (PSR sort gate)” value does the source give for “QVELVESGGGLVQAGGSLRLSCAASGRTFTPYAMGWYRQAPGKEREFVAAISIVGRTKYADSVKGRFTISRDNAKNTVYLQMNSLKPEDTAVYYCNAQDSRDRKFYWGYTRGHWGQGTQVTVSS” here?
A: The value was “low polyreactivity”.

Q: With “QVELVESGGGLVQAGGSLRLSCAASGSIFTVYAMGWYRQAPGKERELVAAISSSGGRTYYADSVKGRFTISRDNAKNTVYLQMNSLKPEDTAVYYCNTGPGQSFRYNYWGQGTQVTVSS” as the sequence, how does the “polyreactivity (PSR sort gate)” value read?
A: The value was “high polyreactivity”.

Q: With “QVELVESGGGLVQAGGSLRLSCAASGSTFSINAMGWYRQAPGKERELVADITWRGVRTYYADSVKGRFTISRDNAKNTVYLQMNSLKPEDTAVYYCAADVVVDGHPGFDYWGQGTQVTVSS” as the sequence, how does the “polyreactivity (PSR sort gate)” value read?
A: The value was “high polyreactivity”.

Q: Which “polyreactivity (PSR sort gate)” value does the source give for “QVELVESGGGLVQAGGSLRLSCAASGSTFVDNDMGWYRQAPGKERELVAAAITARGGSTYYADSVTGRFTISRDNAKNTDYIQMNSLKPEDTAVYYCAAGRPGELDYWGQGTQVTVSS” here?
A: The value was “low polyreactivity”.

Q: Which “polyreactivity (PSR sort gate)” value does the source give for “QVELVESGGGLVQAGVSLRLSCAASGIISRGYAMGWYRQAPGKERELVAAISRSGGTTYYADSVKGRFTISRDNAKTTVYLQMNSLKPEDTAVYYCAARSKYFGYWGQGTQVTVSS” here?
A: Its value is “high polyreactivity”.

Q: With “QVELVESGGGLVQPGGSLRLSCAASGRTFYLNAMGWYRQAPGKEREFVARITWSGGSTYYADSVKGRFTISRDNAKNTVYLQMNSLKPEDTAVYYCAARVRLYRGFTKYDYWGQGTQVTVSS” as the sequence, how does the “polyreactivity (PSR sort gate)” value read?
A: Its value is “high polyreactivity”.

Q: With “QVHHEESGGGLFQAGGRLRLSCAASGYIFYDYSMGWYRQAPGKERELVAAISSGGSTNYADSVKGRFTISRDNAKNTVYLQMNSLIPEDTAVYYCASDDRSYATWKRDYDYWGQGTHVTVSS” as the sequence, how does the “polyreactivity (PSR sort gate)” value read?
A: Its value is “low polyreactivity”.

Q: Which “polyreactivity (PSR sort gate)” value does the source give for “QVHHVESAGGLVQAGASLRLSSAASGSTIYRYAMGWYRQTPGKERELVARIDWSDGSTNYADSVKGRFTISRDNAKNTVYLQMNSLKPEDTGVYYCASDTYYDTYDGEYEYWGQGTQVTVSS” here?
A: Its value is “low polyreactivity”.

Q: For “QVHHVESGGGLVQAGGCLRLSCAASGFIVRENAMGWYRQAPGKERELVAAISKSGGRTYYADSVKGRFTISRDNAKNTVYLQMNSLKPEDTAVFYCAAYPSYTIHPAGDYWGQGTQVTVSS”, which “polyreactivity (PSR sort gate)” value is on record?
A: Its value is “high polyreactivity”.

Q: Which “polyreactivity (PSR sort gate)” value does the source give for “QVHHVESGGGLVQAGGILRLSCAASGFTIFKYAMGWSRQKPGKERELVATISIDGITNYADSVKGRFTISRDNAKNTVYLQMNILKPEDTAVYYCHALSLYQQLGYWGQGTQVTVSS” here?
A: The value was “low polyreactivity”.

Q: Which “polyreactivity (PSR sort gate)” value does the source give for “QVHHVESGGGLVQAGGSLRLSCAASGGTFYYNAMGWYRQAPGKERELVAAIDGSGGTTYYADSVKGRFTISRDNAKNTVYLQMNSLKPEDTAVYYCAAAGSPSVYGYGYWGQGTQVTVSS” here?
A: Its value is “low polyreactivity”.

Q: For “QVHHVESGGGLVQAGGSLRLSCAASGSTIDEYAMGWYRQAPGKERELVAAIDWSTGSTYYADSVKGRFTISRDNAKNTVYLQMNSLKPEDTAVYYCAADSGYGPYYYWGQGTQVTVSS”, which “polyreactivity (PSR sort gate)” value is on record?
A: Its value is “high polyreactivity”.

Q: With “QVHHVESGGVLVKAGGSLRLSCAASGRTIYAYAMGWYRQAPGQESELVAAITSGASTYYADSVKGRFTISRDNAKNTVYLQMNSLKPEDTGVYYCAKRVRYYKPGYDYWGLGTQVTVSS” as the sequence, how does the “polyreactivity (PSR sort gate)” value read?
A: Its value is “low polyreactivity”.

Q: For “QVHIVESGGGLVQAAGSLRLSCAASGSTLAIYDMGWYRQAPGKERELVAAISGGGSTYADSVKGRFTISPDNAKNTVYLHMNSLKTEDTAVYYFNADGWGDLFWSNFRFDYWVQGTQVTVSS”, which “polyreactivity (PSR sort gate)” value is on record?
A: The value was “low polyreactivity”.
